Drawing on paper PMC9482650, “Quantitative fragmentomics allow affinity mapping of interactomes” (Nature Communications, 2022), this text covers pKd for two molecules.

Common to all, as to test: holdup assay
What all share (set-up): key: below the threshold = too weak to quantify, mostly under pKd 3.1 to 4
What all share (settings): plain residues with an end cap or a label only (N-terminal biotin on a linker: ttds)

Test [1] has as its target T1, PDZRN3_1, Q9UPQ7.
T1 sequence (Q9UPQ7 244-349, limits assumed, looked up): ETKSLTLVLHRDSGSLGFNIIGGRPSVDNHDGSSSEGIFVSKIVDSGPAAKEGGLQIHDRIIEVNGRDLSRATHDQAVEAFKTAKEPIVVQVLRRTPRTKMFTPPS

Test [2] addresses T2, GRIP1_5, Q9Y3R0.
T2 sequence (Q9Y3R0 568-668, limits assumed, looked up): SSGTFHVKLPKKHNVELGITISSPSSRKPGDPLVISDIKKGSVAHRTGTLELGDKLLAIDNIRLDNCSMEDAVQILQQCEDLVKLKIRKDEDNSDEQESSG

Test [3] has as its target T3, DFNB31_1, Q9P202.
T3 sequence (Q9P202 135-233, limits assumed, looked up): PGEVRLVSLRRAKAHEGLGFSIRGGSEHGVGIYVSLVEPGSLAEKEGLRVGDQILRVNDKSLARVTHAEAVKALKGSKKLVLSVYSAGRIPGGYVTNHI

Test [4] concerns the target T4, HTRA3, P83110.
T4 sequence (P83110 354-453, limits assumed, looked up): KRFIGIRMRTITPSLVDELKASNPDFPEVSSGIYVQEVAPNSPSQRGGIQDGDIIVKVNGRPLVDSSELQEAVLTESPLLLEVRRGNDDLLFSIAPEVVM

The target in test [5] is T5, APBA2_1, Q99767.
T5 sequence (Q99767 563-664, limits assumed, looked up): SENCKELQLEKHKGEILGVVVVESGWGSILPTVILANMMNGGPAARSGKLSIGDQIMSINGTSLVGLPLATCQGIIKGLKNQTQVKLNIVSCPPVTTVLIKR

Test [6] addresses T6, SNTB1, Q13884.
T6 sequence (Q13884 107-205, limits assumed, looked up): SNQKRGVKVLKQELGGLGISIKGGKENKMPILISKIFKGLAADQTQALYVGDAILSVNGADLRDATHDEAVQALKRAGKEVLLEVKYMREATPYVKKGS

Test [7] addresses T7, ARHGEF11, O15085.
T7 sequence (O15085 42-136, limits assumed, looked up): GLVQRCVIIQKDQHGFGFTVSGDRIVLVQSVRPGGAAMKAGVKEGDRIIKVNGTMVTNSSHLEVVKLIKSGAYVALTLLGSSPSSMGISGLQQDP

The target of test [8] is GRIP2_6, Q9C0E4.
GRIP2_6, Q9C0E4, sequence (Q9C0E4 648-740): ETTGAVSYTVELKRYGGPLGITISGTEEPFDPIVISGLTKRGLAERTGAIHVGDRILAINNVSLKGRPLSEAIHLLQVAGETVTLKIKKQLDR
Test [9] concerns the target T8, TX1BP3, O14907.
T8 sequence (O14907 10-122, limits assumed, looked up): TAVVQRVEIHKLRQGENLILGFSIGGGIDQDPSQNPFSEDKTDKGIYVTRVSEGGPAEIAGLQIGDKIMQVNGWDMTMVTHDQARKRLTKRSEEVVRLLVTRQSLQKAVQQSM

The target in test [10] is CASK, O14936.
CASK, O14936, sequence (O14936 487-570): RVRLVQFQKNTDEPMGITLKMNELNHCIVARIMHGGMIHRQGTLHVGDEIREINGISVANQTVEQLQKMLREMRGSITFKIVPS
Test [11] has as its target DLG1_3, Q12959.
Test [12] addresses Inadl_1, Q8NI35.
In test [13] the target is GORASP1, Q9BQQ3.
GORASP1, Q9BQQ3, sequence (Q9BQQ3 1-208): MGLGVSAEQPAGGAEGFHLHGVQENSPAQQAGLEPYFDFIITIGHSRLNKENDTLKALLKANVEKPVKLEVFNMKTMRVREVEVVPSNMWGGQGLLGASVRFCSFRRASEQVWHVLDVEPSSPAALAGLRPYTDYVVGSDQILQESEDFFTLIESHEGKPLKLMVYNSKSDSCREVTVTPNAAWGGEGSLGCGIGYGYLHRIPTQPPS
The target in test [14] is T9, GRIP1_4, Q9Y3R0.
T9 sequence (Q9Y3R0 467-571, limits assumed, looked up): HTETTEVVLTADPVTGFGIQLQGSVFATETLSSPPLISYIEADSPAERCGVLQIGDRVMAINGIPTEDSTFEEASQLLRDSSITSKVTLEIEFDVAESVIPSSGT

Test [15] has as its target Inadl_6, Q8NI35.
Test [16] addresses T10, RAPGEF6, Q8TEU7.
T10 sequence (Q8TEU7 525-625, limits assumed, looked up): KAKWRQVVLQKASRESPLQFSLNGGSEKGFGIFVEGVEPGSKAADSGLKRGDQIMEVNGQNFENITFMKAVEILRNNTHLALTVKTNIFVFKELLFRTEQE

For test [17], the target named is FRMPD2_1, Q68DX3.
FRMPD2_1, Q68DX3, sequence (Q68DX3 770-861): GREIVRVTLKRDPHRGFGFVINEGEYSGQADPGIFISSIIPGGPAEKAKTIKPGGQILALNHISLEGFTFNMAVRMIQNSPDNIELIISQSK
In test [18] the target is T11, MPP7, Q5T2T1.
T11 sequence (Q5T2T1 134-230, limits assumed, looked up): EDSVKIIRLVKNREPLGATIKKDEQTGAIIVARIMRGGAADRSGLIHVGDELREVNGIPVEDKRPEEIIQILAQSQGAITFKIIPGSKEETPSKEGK

For test [19], the target named is T12, DFNB31_3, Q9P202.
T12 sequence (Q9P202 811-907, limits assumed, looked up): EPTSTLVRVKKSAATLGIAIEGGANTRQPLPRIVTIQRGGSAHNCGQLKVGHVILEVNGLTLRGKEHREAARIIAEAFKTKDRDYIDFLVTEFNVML

The target in test [20] is MAGI2_5, Q86UL8.
MAGI2_5, Q86UL8, sequence (Q86UL8 915-1017): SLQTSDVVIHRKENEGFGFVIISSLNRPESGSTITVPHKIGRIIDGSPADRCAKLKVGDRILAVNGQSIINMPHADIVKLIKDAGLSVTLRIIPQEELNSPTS
The target of test [21] is SCRIB_1, Q14160.
SCRIB_1, Q14160, sequence (Q14160 718-814): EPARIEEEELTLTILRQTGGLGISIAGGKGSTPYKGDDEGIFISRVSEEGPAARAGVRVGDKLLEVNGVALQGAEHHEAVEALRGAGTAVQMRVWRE
Test [22] addresses T13, LIN7B, Q9HAP6.
T13 sequence (Q9HAP6 88-185, limits assumed, looked up): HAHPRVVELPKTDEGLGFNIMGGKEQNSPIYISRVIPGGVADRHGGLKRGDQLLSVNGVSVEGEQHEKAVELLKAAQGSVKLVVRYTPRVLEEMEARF

For test [23], the target named is GIPC2, Q8TF65.
GIPC2, Q8TF65, sequence (Q8TF65 112-203): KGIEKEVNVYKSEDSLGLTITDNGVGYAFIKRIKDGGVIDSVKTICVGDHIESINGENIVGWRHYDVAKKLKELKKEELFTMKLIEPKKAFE
Test [24] has as its target MAST2, Q6P0Q8.

Inadl_1, Q8NI35, sequence (Q8NI35 113-229): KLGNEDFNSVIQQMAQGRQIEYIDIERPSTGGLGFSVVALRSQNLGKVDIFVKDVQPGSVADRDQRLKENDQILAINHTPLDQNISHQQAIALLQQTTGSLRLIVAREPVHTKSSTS
Inadl_6, Q8NI35, sequence (Q8NI35 1058-1167): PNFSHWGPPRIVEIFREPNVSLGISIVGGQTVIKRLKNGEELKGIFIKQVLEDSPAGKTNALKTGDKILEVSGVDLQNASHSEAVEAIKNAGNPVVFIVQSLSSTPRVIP
MAST2, Q6P0Q8, sequence (Q6P0Q8 1099-1202): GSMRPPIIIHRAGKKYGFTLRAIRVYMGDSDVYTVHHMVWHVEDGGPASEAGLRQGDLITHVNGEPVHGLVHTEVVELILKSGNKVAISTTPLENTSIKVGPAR
DLG1_3, Q12959, sequence (Q12959 457-571): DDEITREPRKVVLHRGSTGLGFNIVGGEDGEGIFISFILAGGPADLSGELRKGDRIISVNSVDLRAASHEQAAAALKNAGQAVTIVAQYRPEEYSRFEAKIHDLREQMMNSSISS

Regarding GRLLGLETNV [ARHGEF26, Q96DR7], the negative-log Kd (pKd) was 3.59 in test [1]; “below the threshold” in test [2]; 3.91 in test [3]; “below the threshold” in [4]; “below the threshold” in [5]; 4.79 in test [6]. Moreover, the negative-log Kd (pKd) entry was “below the threshold” in test [7]; “below the threshold” in [8]; 4.49 in test [9]; “below the threshold” in [10]; 4.92 in test [11]; “below the threshold” in test [12]. Besides, the negative-log Kd (pKd) entry in [13], in test [14], in [15], in [16], in test [17] and in test [18] was “below the threshold” throughout. In addition, the pKd entry in [19] was “below the threshold”; in test [20], “below the threshold”; in test [21], 4.45; in test [22], “below the threshold”; in test [23], “below the threshold”; in test [24], 5.35.
Turning to QRPYRRESEI [KCNJ12, Q14500], the negative logarithm of the Kd (pKd) in test [1] is 4.68; in test [2], “below the threshold”; in [3], 4.02; in test [4], “below the threshold”; in test [5], “below the threshold”; in [6], 3.86. In addition, the pKd entry was “below the threshold” in [7]; “below the threshold” in test [8]; 4.64 in test [9]; “below the threshold” in test [10]; 4.08 in test [11]; “below the threshold” in test [12]. Moreover, the pKd entry in test [13], in test [14], in test [15], in [16], in [17] and in test [18] was “below the threshold” in each case. Besides, the negative-log Kd (pKd) entry in test [19] is “below the threshold”; in [20] it was “below the threshold”; in test [21], 3.83; in test [22] it was “below the threshold”; in [23] it was “below the threshold”; in test [24], 4.42.
